Source: paper PMC3493965 (The Journal of Biological Chemistry, 2012)

Molecular target: TaCDC48-L745W (W466F, W541Y, L745W) (T. acidophilum, UniProt O05209 1-745, W466F | W541Y | L745W)
Assay: tryptophan fluorescence shift

Chain of TaCDC48-L745W (W466F, W541Y, L745W) (O05209 whole entry W466F/W541Y/L745W): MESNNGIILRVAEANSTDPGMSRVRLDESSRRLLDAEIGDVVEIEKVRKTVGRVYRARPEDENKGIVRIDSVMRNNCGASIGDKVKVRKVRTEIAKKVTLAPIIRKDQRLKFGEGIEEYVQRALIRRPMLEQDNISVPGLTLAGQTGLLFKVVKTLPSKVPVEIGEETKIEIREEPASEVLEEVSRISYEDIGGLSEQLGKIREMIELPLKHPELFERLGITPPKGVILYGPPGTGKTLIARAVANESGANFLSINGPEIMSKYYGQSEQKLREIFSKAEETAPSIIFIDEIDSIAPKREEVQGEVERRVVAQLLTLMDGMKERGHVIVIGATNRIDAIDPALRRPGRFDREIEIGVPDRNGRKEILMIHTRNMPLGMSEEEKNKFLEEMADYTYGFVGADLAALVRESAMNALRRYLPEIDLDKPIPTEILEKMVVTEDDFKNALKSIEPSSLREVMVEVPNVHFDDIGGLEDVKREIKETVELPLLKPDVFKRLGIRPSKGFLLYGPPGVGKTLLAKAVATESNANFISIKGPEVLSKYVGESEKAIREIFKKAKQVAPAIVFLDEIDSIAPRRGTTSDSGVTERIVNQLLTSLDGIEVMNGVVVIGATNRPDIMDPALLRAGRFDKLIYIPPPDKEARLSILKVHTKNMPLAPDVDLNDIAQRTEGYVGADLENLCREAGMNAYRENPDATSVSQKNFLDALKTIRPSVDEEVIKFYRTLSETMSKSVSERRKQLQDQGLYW

binding result: binds
B1: Thermoplasma acidophilum 20S proteasome core particle, recombinant (complex, T. acidophilum)
chain 1: MQQGQMAYDRAITVFSPDGRLFQVEYAREAVKKGSTALGMKFANGVLLISDKKVRSRLIEQNSIEKIQLIDDYVAAVTSGLVADARVLVDFARISAQQEKVTYGSLVNIENLVKRVADQMQQYTQYGGVRPYGVSLIFAGIDQIGPRLFDCDPAGTINEYKATAIGSGKDAVVSFLEREYKENLPEKEAVTLGIKALKSSLEEGEELKAPEIASITVGNKYRIYDQEEVKKFL
chain 2: TTTVGITLKDAVIMATERRVTMENFIMHKNGKKLFQIDTYTGMTIAGLVGDAQVLVRYMKAELELYRLQRRVNMPIEAVATLLSNMLNQVKYMPYMVQLLVGGIDTAPHVFSIDAAGGSVEDIYASTGSGSPFVYGVLESQYSEKMTVDEGVDLVIRAISAAKQRDSASGGMIDVAVITRKDGYVQLPTDQIESRIRKLGLIL
